Experimental data taken from patent US20260240908A1 (FRED HUTCHINSON CANCER CENTER, published 2026).

Columns and labels:
[1] = target: T1, PE- or biotin-conjugated human PD-1 Fc fusion protein (Acrobiosystems) (human, UniProt Q15116 25-167, limits assumed, PE- or biotin-conjugated); test: flow cytometry, PD-1 Fc staining of transduced Jurkat Nur77-NeonGreen cells
T1 construct: Bought reagent (Acrobiosystems); also called PD-1-Fc-PE; PD-1 Fc chimera; not shown: Fc part of the bought fusion protein
T1 sequence (Q15116 25-167 limits assumed): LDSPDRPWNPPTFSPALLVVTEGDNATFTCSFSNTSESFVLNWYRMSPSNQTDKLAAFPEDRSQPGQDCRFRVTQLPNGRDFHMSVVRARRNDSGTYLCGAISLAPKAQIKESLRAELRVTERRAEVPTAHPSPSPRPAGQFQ
Description: The biotin-conjugated PD-1-Fc protein was counterstained with BV421-conjugated Streptavidin (Invitrogen).
The EGFRt-tag was detected as a surrogate marker for CAR expression for the six constructs (FIGS. 2A and 9). CARs directed against antigens expressed in T cells may at times lead to fratricide and hamper CAR T cell production.

[2] = target: T2, PD-1 on the cell surface (Molt-4 cells; KG PD-1 cells) (UniProt Q15116 25-288, limits assumed); test: flow cytometry of detectable cell surface PD-1 on Molt-4 cells that co-express the CAR (masking in cis)
T2 construct: whole, on cells; Molt-4 is a human acute lymphoblastic leukemia line; also called PD-1-expressing Molt 4 cells; K562 GFP (KG) PD-1 cells
T2 sequence (Q15116 25-288 limits assumed): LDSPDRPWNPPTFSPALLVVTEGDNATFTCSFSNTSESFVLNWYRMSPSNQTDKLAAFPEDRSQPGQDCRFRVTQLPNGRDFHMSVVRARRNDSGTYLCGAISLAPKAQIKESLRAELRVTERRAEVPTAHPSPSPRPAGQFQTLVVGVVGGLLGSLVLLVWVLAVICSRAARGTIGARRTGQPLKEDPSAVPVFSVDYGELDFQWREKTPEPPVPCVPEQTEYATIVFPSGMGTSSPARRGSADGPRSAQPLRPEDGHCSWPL

Binder	binding result [1]	binding result [2]
VH VL S anti-PD-1 CAR BD ΔCD3ζ (other, Residues 1-22 are the GM-CSF signal peptide, left out) QVQLVQSGVEVKKPGASVKVSCKASGYTFANYFMYWVRQAPGQGLEWMGGIAPAAGGAAFNEKFKNRVTLTTDSSTTTAYMELKSLQFDDTAVYYCARADFAFDMGFDYWGQGTTVTVSSASTKGGGGGSGGGGSGGGGSEIVLTQSPATLSLSPGERATLSCRASKGVSTAGFSYLHWYQQKPGQAPRLLIFLASFLESGVPARFSGSGSGTDFTLTISSLEPEDFAVYYCQHARALPLTFGGGTKVEIKRTVAAPSVFIFPPSDEQLKSGTAESKYGPPCPPCPMFWVLVVVGGVLACYSLLVTVAFIIFWVKRGRKKLLYIFKQPFMRPVQTTQEEDGCSCRFPEEEEGGCEL	no binding	no binding
VH VL S anti-PD-1 CAR BD (binding-defective) (other, Residues 1-22 are the GM-CSF signal peptide, left out) QVQLVQSGVEVKKPGASVKVSCKASGYTFANYFMYWVRQAPGQGLEWMGGIAPAAGGAAFNEKFKNRVTLTTDSSTTTAYMELKSLQFDDTAVYYCARADFAFDMGFDYWGQGTTVTVSSASTKGGGGGSGGGGSGGGGSEIVLTQSPATLSLSPGERATLSCRASKGVSTAGFSYLHWYQQKPGQAPRLLIFLASFLESGVPARFSGSGSGTDFTLTISSLEPEDFAVYYCQHARALPLTFGGGTKVEIKRTVAAPSVFIFPPSDEQLKSGTAESKYGPPCPPCPMFWVLVVVGGVLACYSLLVTVAFIIFWVKRGRKKLLYIFKQPFMRPVQTTQEEDGCSCRFPEEEEGGCELRVKFSRSADAPAYQQGQNQLYNELNLGRREEYDVLDKRRGRDPEMGGKPRRKNPQEGLYNELQKDKMAEAYSEIGMKGERRRGKGHDGLYQGLSTATKDTYDALHMQALPPR	no binding	no binding
